Experimental data as given in the supplement of paper PMC9112550, “Optimization of the antimicrobial peptide Bac7 by deep mutational scanning” (BMC Biology, 2022).

Each sequence was assayed on Escherichia coli TOP10 (assay: shrunken log2 fold change of peptide-encoding DNA abundance (4.5 h post-induction vs induction); higher = less antimicrobial activity (less host growth inhibition)). Conditions: time post-induction: 4.5 h; library: site-saturation at positions 5, 18, 19, 20.
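Also: peptides expressed intracellularly from a pBAD plasmid library in pooled LB shake-flask culture, induced with 0.3% L-arabinose, DNA abundance read by NGS, three biological replicates, DESeq2 with apeglm shrinkage.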

Sequence	shrunken log2 fold change
RRIRRRPPRLPRPRPRPAKKPRP	1.04
RRIRRRPPRLPRPRPRPALHPRP	0.651
RRIRRRPPRLPRPRPRPALSPRP	0.528
RRIRRRPPRLPRPRPRPANLPRP	0.0328
RRIRRRPPRLPRPRPRPANPPRP	0.364
RRIRRRPPRLPRPRPRPANQPRP	0.0564
RRIRRRPPRLPRPRPRPANRPRP	-0.0151
RRIRRRPPRLPRPRPRPAPSPRP	0.809
RRIRRRPPRLPRPRPRPASVPRP	0.267
RRIRRRPPRLPRPRPRPAVHPRP	0.321
RRIRRRPPRLPRPRPRPAVYPRP	0.0519
RRIRRRPPRLPRPRPRPAWNPRP	0.141
RRIRRRPPRLPRPRPRPAYKPRP	0.0139
RRIRRRPPRLPRPRPRPCACPRP	-0.0784
RRIRRRPPRLPRPRPRPCANPRP	-0.0911
RRIRRRPPRLPRPRPRPCARPRP	0.395
RRIRRRPPRLPRPRPRPCAVPRP	0.0527
RRIRRRPPRLPRPRPRPCCGPRP	0.0161
RRIRRRPPRLPRPRPRPCCSPRP	0.107
RRIRRRPPRLPRPRPRPCCWPRP	0.322
RRIRRRPPRLPRPRPRPCFWPRP	0.406
RRIRRRPPRLPRPRPRPCGEPRP	0.0238
RRIRRRPPRLPRPRPRPCGGPRP	0.686
RRIRRRPPRLPRPRPRPCGMPRP	0.114
RRIRRRPPRLPRPRPRPCHIPRP	-0.309

Sequence	shrunken log2 fold change
RRIRRRPPRLPRPRPRPCHYPRP	0.00952
RRIRRRPPRLPRPRPRPCIHPRP	-0.402
RRIRRRPPRLPRPRPRPCKDPRP	-0.0845
RRIRRRPPRLPRPRPRPCKQPRP	-0.0474
RRIRRRPPRLPRPRPRPCLHPRP	0.0897
RRIRRRPPRLPRPRPRPCLQPRP	-0.0554
RRIRRRPPRLPRPRPRPCMAPRP	0.61
RRIRRRPPRLPRPRPRPCMNPRP	-0.154
RRIRRRPPRLPRPRPRPCMPPRP	-0.301
RRIRRRPPRLPRPRPRPCNPPRP	-0.466
RRIRRRPPRLPRPRPRPCPDPRP	-0.0762
RRIRRRPPRLPRPRPRPCPGPRP	-0.196
RRIRRRPPRLPRPRPRPCPNPRP	-0.207
RRIRRRPPRLPRPRPRPCQNPRP	-0.0482
RRIRRRPPRLPRPRPRPCRSPRP	-0.03
RRIRRRPPRLPRPRPRPCSQPRP	0.0499
RRIRRRPPRLPRPRPRPCTFPRP	-0.262
RRIRRRPPRLPRPRPRPCTIPRP	-0.182
RRIRRRPPRLPRPRPRPCTMPRP	-0.451
RRIRRRPPRLPRPRPRPCYAPRP	1.3
RRIRRRPPRLPRPRPRPCYIPRP	-0.205
RRIRRRPPRLPRPRPRPCYMPRP	-0.191
RRIRRRPPRLPRPRPRPCYSPRP	-0.00167
RRIRRRPPRLPRPRPRPDAWPRP	0.325
RRIRRRPPRLPRPRPRPDCCPRP	0.168

Sequence	shrunken log2 fold change
RRIRRRPPRLPRPRPRPDDEPRP	0.0458
RRIRRRPPRLPRPRPRPDDMPRP	-0.039
RRIRRRPPRLPRPRPRPDECPRP	0.746
RRIRRRPPRLPRPRPRPDFAPRP	0.39
RRIRRRPPRLPRPRPRPDFIPRP	0.0171
RRIRRRPPRLPRPRPRPDFMPRP	0.335
RRIRRRPPRLPRPRPRPDFWPRP	0.647
RRIRRRPPRLPRPRPRPDGTPRP	0.0222
RRIRRRPPRLPRPRPRPDHRPRP	-0.00663
RRIRRRPPRLPRPRPRPDLAPRP	0.197
RRIRRRPPRLPRPRPRPDMVPRP	0.206
RRIRRRPPRLPRPRPRPDNKPRP	-0.233
RRIRRRPPRLPRPRPRPDPLPRP	0.119
RRIRRRPPRLPRPRPRPDPQPRP	1.23
RRIRRRPPRLPRPRPRPDPRPRP	0.12
RRIRRRPPRLPRPRPRPDPSPRP	0.213
RRIRRRPPRLPRPRPRPDQFPRP	-0.0176
RRIRRRPPRLPRPRPRPDQHPRP	0.552
RRIRRRPPRLPRPRPRPDQKPRP	-0.0181
RRIRRRPPRLPRPRPRPDQMPRP	-0.0181
RRIRRRPPRLPRPRPRPDQVPRP	0.0594
RRIRRRPPRLPRPRPRPDQYPRP	-0.126
RRIRRRPPRLPRPRPRPDRDPRP	0.15
RRIRRRPPRLPRPRPRPDRKPRP	-0.145
RRIRRRPPRLPRPRPRPDRTPRP	0.222
